Reference: PMC8297783, “Autocrine signaling by receptor tyrosine kinases in urothelial carcinoma of the bladder” (PLoS ONE, 2021)

Test system: FL3 cells
Assay: cell proliferation assay, FL3 cells
Type: cell-based, Human
Settings: 1% FBS, 6 d, added MST1 alone 5 nM, relative to untreated cells

B1: MST1: exogenous cognate ligand of MST1R, added to cells at 5 nM (protein, UniProt P26927 19-711, looked up)
Hepatocyte growth factor-like …: QRSPLNDFQVLRGTELQHLLHAVVPGPWQEDVADAEECAGRCGPLMDCRAFHYNVSSHGCQLLPWTQHSPHTRLRRSGRCDLFQKKDYVRTCIMNNGVGYRGTMATTVGGLPCQAWSHKFPNDHKYTPTLRNGLEENFCRNPDGDPGGPWCYTTDPAVRFQSCGIKSCREAACVWCNGEEYRGAVDRTESGRECQRWDLQHPHQHPFEPGKFLDQGLDDNYCRNPDGSERPWCYTTDPQIEREFCDLPRCGSEAQPRQEATTVSCFRGKGEGYRGTANTTTAGVPCQRWDAQIPHQHRFTPEKYACKDLRENFCRNPDGSEAPWCFTLRPGMRAAFCYQIRRCTDDVRPQDCYHGAGEQYRGTVSKTRKGVQCQRWSAETPHKPQFTFTSEPHAQLEENFCRNPDGDSHGPWCYTMDPRTPFDYCALRRCADDQPPSILDPPDQVQFEKCGKRVDRLDQRRSKLRVVGGHPGNSPWTVSLRNRQGQHFCGGSLVKEQWILTARQCFSSCHMPLTGYEVWLGTLFQNPQHGEPSLQRVPVAKMVCGPSGSQLVLLKLERSVTLNQRVALICLPPEWYVVPPGTKCEIAGWGETKGTGNDTVLNVALLNVISNQECNIKHRGRVRESEMCTEGLLAPVGACEGDYGGPLACFTHNCWVLEGIIIPNRVCARSRWPAVFTRVSVFVDWIHKVMRLG
Question: With B1 as the molecule, how does the proliferation rate read?
Answer: Its proliferation rate is “significantly increased proliferation rate”.
